Reference: patent publication US20190300590A1 (PROTAGONIST THERAPEUTICS, published 2019)
*1 amine or outer side, *2 acyl side, *3 side chain or, on linkers, in order; H or OH if unused. Bridges are numbered along the chain shown (N, C = ends). [ ]: non-standard residue; d: D form. Phe(4-OMe) = 4-methoxy-L-phenylalanine (O-methyl-L-tyrosine), COc1ccc(C[C@H](N[*:1])C(=O)[*:2])cc1; 2Nal = N[C@@H](Cc1ccc2ccccc2c1)C(=O)O; AEF = NCCOc1ccc(C[C@H](N)C(=O)O)cc1; Cit = NC(=O)NCCC[C@H](N)C(=O)O; αMeL = CC(C)C[C@](C)(N)C(=O)O; αMeK = C[C@](N)(CCCCN)C(=O)O; αMeV = CC(C)[C@](C)(N)C(=O)O; Thp = NC1(C(=O)O)CCOCC1; Abu = CC[C@H](N)C(=O)O; Aib = CC(C)(N)C(=O)O

T1: IL23R_huFC (human, UniProt Q5VWK5 24-353)
T1 sequence (looked up): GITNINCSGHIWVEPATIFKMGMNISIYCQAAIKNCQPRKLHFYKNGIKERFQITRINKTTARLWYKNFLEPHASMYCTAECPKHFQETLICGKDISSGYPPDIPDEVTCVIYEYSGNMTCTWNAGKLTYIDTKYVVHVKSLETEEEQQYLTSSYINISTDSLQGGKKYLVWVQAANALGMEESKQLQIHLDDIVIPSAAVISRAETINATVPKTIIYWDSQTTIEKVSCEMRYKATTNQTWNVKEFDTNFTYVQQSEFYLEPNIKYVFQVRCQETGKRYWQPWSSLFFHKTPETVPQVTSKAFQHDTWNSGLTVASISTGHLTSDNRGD

T2: IL-23R on human cells (IL-23R-expressing DB cells; human NK cells) (human, UniProt Q5VWK5 24-629)
T2 sequence (looked up): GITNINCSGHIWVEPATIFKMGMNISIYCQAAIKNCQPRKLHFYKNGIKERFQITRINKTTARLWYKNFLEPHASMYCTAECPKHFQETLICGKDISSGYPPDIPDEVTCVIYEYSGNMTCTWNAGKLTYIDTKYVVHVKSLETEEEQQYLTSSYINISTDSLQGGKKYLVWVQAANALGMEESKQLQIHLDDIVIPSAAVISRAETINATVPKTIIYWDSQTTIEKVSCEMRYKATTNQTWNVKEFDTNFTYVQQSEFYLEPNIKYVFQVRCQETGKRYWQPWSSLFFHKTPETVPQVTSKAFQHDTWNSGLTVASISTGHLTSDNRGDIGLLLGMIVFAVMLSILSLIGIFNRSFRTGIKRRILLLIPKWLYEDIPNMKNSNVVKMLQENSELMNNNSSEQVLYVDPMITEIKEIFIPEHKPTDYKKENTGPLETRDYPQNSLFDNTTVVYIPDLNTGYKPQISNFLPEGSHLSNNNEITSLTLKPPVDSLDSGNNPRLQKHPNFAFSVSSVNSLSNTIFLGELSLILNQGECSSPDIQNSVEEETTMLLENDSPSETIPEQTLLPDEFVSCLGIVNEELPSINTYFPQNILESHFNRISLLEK

B1: Ac-Cyclo-[[Abu]-QTWQC]-[Phe[4-(2-aminoethoxy)]]-[2-Nal]-[4-amino-4-carboxy-tetrahydropyran]-ENN-NH2 (peptide)
peptide: Ac-[Abu]QTWQC[AEF][2Nal][Thp]ENN-NH2
modifications: thioether 1-6
B2: Ac-[(D)Phe]-Cyclo-[[Abu]-QTWQC]-[Phe[4-(2-aminoethoxy)]]-[2-Nal]-[α-MeLys]-ENN-NH2 (peptide)
peptide: Ac-[dF][Abu]QTWQC[AEF][2Nal][αMeK]ENN-NH2
modifications: thioether 2-7
B3: Ac-Cyclo-[[Abu]-QTWQC]-[Phe[4-(2-aminoethoxy)]]-[2-Nal]-[α-MeLeu)-[Cit]-NN-NH2 (peptide)
peptide: Ac-[Abu]QTWQC[AEF][2Nal][αMeL][Cit]NN-NH2
modifications: thioether 1-6
B4: Ac-Cyclo-[[Abu]-QTWQC]-[Phe[4-(2-aminoethoxy)]]-[2-Nal]-α-MeVal]-[Lys(Ac)]-NG-NH2 (peptide)
peptide: Ac-[Abu]QTWQC[AEF][2Nal][αMeV]K(Ac)NG-NH2
modifications: thioether 1-6
B5: Ac-Cyclo-[[Abu]-QTWQC]-[Phe[4-(2-aminoethoxy)]]-[2-Nal]-[α-MeLys]-ENQ-NH2 (peptide)
peptide: Ac-[Abu]QTWQC[AEF][2Nal][αMeK]ENQ-NH2
modifications: thioether 1-6
B6: Ac-Cyclo-[[Abu]-QTWQC]-[Phe[4-(2-aminoethoxy)]]-[2-Nal]-[α-MeLys]-ENN-NH2 (peptide)
peptide: Ac-[Abu]QTWQC[AEF][2Nal][αMeK]ENN-NH2
modifications: thioether 1-6
B7: Ac-Cyclo-[[Abu]-QTWQC]-[Phe[4-(2-aminoethoxy)]]-[2-Nal]-[Aib]-[Lys(Ac)]-NA-NH2 (peptide)
peptide: Ac-[Abu]QTWQC[AEF][2Nal][Aib]K(Ac)NA-NH2
modifications: thioether 1-6
B8: Ac-Cyclo-[[Abu]-QTWQC]-[Phe[4-(2-aminoethoxy)]]-[2-Nal]-[Aib]-QNG-NH2 (peptide)
peptide: Ac-[Abu]QTWQC[AEF][2Nal][Aib]QNG-NH2
modifications: thioether 1-6
B9: Ac-Cyclo-[[Abu]-QTWQC]-[Phe(4-OMe)]-[2-Nal]-[α-MeLys]-ENG-NH2 (peptide)
peptide: Ac-[Abu]QTWQC[Phe(4-OMe)][2Nal][αMeK]ENG-NH2
modifications: thioether 1-6

The binders below were run against Rat IL-23R_huFC (rat) (assay: rat ELISA vs IL-23).

Row | IC50 [µM] | Binder
1 | < 0.01 | B1
2 | < 0.01 | B2
3 | < 0.01 | B3
4 | < 0.01 | B4
5 | < 0.01 | B5
6 | < 0.01 | B6

Molecular target: Rat IL-23R_huFC (rat)
Experiment: rat ELISA vs IL-23
Remark: another data set of the same source

Row | IC50 [µM] | Binder
7 | 0.01 to 0.025 | B7
8 | 0.01 to 0.025 | B8
9 | 0.01 to 0.025 | B9

What follows are binders tested against T1, IL23R_huFC (assay: human ELISA vs IL-23).

Row | IC50 [µM] | Binder
10 | 0.01 to 0.025 | B9

What follows are binders tested against T2, IL-23R on human cells … (assay: cell-based or functional assay).

Row | NK cell assay IC50 (IFNγ) [µM] | Binder
11 | < 0.025 | B1
12 | < 0.025 | B7
13 | < 0.025 | B8
14 | < 0.025 | B2
15 | < 0.025 | B3
16 | < 0.025 | B9
17 | < 0.025 | B4
18 | < 0.025 | B5
19 | < 0.025 | B6

Molecular target: T2, IL-23R on human cells …
Experiment: cell-based or functional assay
Remark: another data set of the same source

Row | pStat3 HTRF IC50 [nM] | Binder
20 | < 10 | B1
21 | < 10 | B7
22 | < 10 | B8
23 | < 10 | B3
24 | < 10 | B9
25 | < 10 | B4
26 | < 10 | B5
27 | < 10 | B6

Molecular target: T1, IL23R_huFC
Experiment: human ELISA vs IL-23
Remark: another data set of the same source

Row | IC50 [µM] | Binder
28 | < 0.01 | B1
29 | < 0.01 | B7
30 | < 0.01 | B8
31 | < 0.01 | B3
32 | < 0.01 | B4
33 | < 0.01 | B5
34 | < 0.01 | B6
